Km, kcat and kcat/Km data for seven molecules are collected here from publication PMC6987092, “Characterization and diversity of the complete set of GH family 3 enzymes from Rhodothermus marinus DSM 4253” (Scientific Reports, 2020).

One data set addresses T1, RmXyl3B (Rhodothermus marinus, UniProt D0MHL5).
T1 construct: gene Rmar_1081; locus tag is that of the type strain DSM 4252T homolog, gene cloned from DSM 4253
In words: pNP release at […] nm. The class given is biochemical. As to conditions: 20 mM citrate phosphate pH 5.6, 60 °C.

Substrate in data set [1]: O=[N+]([O-])c1ccc(O[C@@H]2O[C@H](CO)[C@@H](O)[C@H](O)[C@H]2O)cc1
In words: purified protein. To be noted: 20 mM citrate phosphate pH 5.6, 60 °C.

Substrate in data set [2]: O=[N+]([O-])c1ccc(O[C@@H]2OC[C@@H](O)[C@H](O)[C@H]2O)cc1
In words: purified protein. In kind it is biochemical, Rhodothermus marinus. As to conditions: 20 mM citrate phosphate pH 5.6, 60 °C.

Substrate in data set [3]: CC(=O)N[C@H]1[C@H](Oc2ccc([N+](=O)[O-])cc2)O[C@H](CO)[C@@H](O)[C@@H]1O
Description: purified protein. The class given is biochemical, Rhodothermus marinus. As to conditions: 20 mM sodium phosphate buffer, 60 °C.

T1 sequence (D0MHL5 entry or part of it): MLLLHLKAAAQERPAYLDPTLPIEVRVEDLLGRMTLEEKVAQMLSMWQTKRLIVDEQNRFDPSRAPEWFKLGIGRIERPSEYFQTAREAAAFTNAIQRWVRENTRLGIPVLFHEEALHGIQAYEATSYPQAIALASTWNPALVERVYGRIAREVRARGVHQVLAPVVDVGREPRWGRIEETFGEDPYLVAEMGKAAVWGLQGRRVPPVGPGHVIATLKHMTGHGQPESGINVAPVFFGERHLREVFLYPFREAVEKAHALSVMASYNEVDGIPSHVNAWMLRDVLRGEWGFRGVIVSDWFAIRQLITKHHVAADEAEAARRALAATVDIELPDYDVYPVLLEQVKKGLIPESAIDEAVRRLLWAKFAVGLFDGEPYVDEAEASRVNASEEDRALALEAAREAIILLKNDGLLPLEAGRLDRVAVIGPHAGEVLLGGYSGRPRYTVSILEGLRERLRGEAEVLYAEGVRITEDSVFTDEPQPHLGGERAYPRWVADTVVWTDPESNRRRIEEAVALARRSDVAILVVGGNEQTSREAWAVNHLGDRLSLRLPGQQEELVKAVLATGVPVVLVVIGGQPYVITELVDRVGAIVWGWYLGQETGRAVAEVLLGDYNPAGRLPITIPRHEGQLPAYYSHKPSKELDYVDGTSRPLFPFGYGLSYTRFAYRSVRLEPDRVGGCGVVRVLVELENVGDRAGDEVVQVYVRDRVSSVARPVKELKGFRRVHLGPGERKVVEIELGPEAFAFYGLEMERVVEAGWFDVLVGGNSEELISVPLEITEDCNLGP

For orientation: Km means the substrate concentration at which the rate is half of its maximum. With `O=[N+]([O-])c1ccc(O[C@@H]2OC[C@@H](O)[C@H](O)[C@H]2O)cc1` [pNP-β-Xyl], the Km at RmXyl3B stood at 300 µM.
On the same count and under the same terms, in the case of `O=[N+]([O-])c1ccc(O[C@@H]2O[C@H](CO)[C@@H](O)[C@H](O)[C@H]2O)cc1` [pNP-β-Glc] it was 1600 ± 400 µM.

B1: RmXyl3A (Rhodothermus marinus DSM 4252) (protein)
chain: QERPAYLDPTLPIEVRVEDLLGRMTLEEKVAQMLSMRQTKRLIVDEQNRFDPSRAPEWFKLGIGRIERPSEYFQTAREAAAFTNAIQRWVRENTRLGIPVIFHEEALHGLRAAEATSYPQAIALASTWNPALVERVYGRIAREVRARGVHQVLAPVVDVGREPRWGRIEETFGEDPYLVAEMGKAAVWGLQGRRVPPVGPGHVIATLKHMAGHGQPESGINVAPVFFGERHLREVFLYPFREAVEKAHALSVMASYNEIDGIPSHANAWMLRDVLRGEWGFRGVIVSDWHGIPQLITRHHVAENLEEAARLALQATVDVELPDYEAYATLVDQVRRGLIPELAVDEAVRRLLWAKFAVGLFDGEPYVDEAEASRVNASEEDRALALEAAREAIILLKNDGLLPLEAGRLDRVAVIGPHAGEVLLGGYSGRPRYTVSILEGLRERLRGEAEVLYAEGVRITEDSVFTDEPQPHLGGTWARQRNAAHRVVFTPPEANRSRIEEAVALARTSDVVVLVVGGNEQTAREAYAPYHLGDRLSLRLPGQQEELVKAVLATGVPVVLVVIGGRPYVITELVDRVGAIVWGWYLGQETGRAVAEVLLGDYNPAGRLPITIPRHEGQLPAYYSHKPSKELDYVDGTSRPLFPFGYGLSYTRFAYRSVRLEPDRVGGCGVVRVLVELENVGDRAGDEVVQVYVRDRVSSVARPVKELKGFRRVHLGPGERKVVEIELGPEAFAFYGLEMERVVEAGWFDVLVGGNSEELISVPLEITEGCNLGR
notes: locus tag is that of the type strain DSM 4252T homolog, gene cloned from DSM 4253
What is called kcat is the number of substrate molecules converted per active site and unit of time at saturation. One may read the kcat/Km as the second-order rate constant that governs catalysis at low substrate concentration. With B1, in the data set “purified protein [1]”, the Km is 6500 ± 800 µM, the kcat stood at 29.2 s⁻¹ and the kcat/Km amounted to 4500 M⁻¹ s⁻¹. Further, in the data set “purified protein [2]”, the Km came to 400 ± 0 µM, the kcat turned out to be 50.1 ± 1.9 s⁻¹ and the kcat/Km worked out at 140000 ± 15700 M⁻¹ s⁻¹.

B2: RmBgl3A (Rhodothermus marinus DSM 4252) (protein)
chain: MRTLRLLTLSLLWSGWLLPAIAQVDRAREDSLIEALLARMTLEEKLGQLTLYNGGMAETGPVVREGEPDAIRRGRVGAVMNFFGAEAVCAMQRQAVEESRLGIPLLFALDVIHGFRTIFPVPLAEAATFDPALVEQAARVAAGEASAVGLNWTFAPMVDIARDARWGRIVEGSGEDPYLGAVMAAARVRGFQGRDLRDPTTILATAKHFAAYGAAEAGRDYNTVDVSERTLREVYLPPFEAAVRAGALSIMSAFNEIGGVPATADRWLLTDVLRHEWGFEGLVVSDYTSVWELLFHGIAADSAEVGRKALEAGVDMDMVSGIYVRKLAEEVRAGRLSEAVVDEAVRRVLRVKYRLGLFEDPYRYCRDASREQVLLSPAHRRLAREVARKAIVLLKNEGELLPLADTLQRVAVIGALANDSASVLGPWAAAGRPEDAVTILEGIRAALPGATVRYAPGYAEVPSGSFQEMVAAALSPDTSGFAEAEAVARWAEVVILVLGEHRELSGEAASRASVELPGVQLALAWRLLALGRPVVVVLMNGRPLAIPELAASAPAIVEAWFLGTEMGHAVADVLLGKASPGGRLPVSFPRATGQEPLYYNHKPTGRPPRAEEKYTSKYVDVPWTPLYPFGYGLTYTTFAYDSLRLSRRRLGLDDTLEVVVSVTNTGRRRGEEVVQLYVRDEVASVTRPVKELKGFARVELAPGETKAVQFRLPVRALRFWGLEGGWVVEPGWFTLWVGPSSAEGLQARFEVVSP
notes: recombinant in E. coli BL21 C43 (pJOE3075), C-terminal His-tag, no signal peptide predicted; locus tag is that of the type strain DSM 4252T homolog, gene cloned from DSM 4253
For the molecule B2, in the data set “purified protein [1]”, the Km turned out to be 100 ± 0 µM, the kcat amounted to 79.9 s⁻¹ and the kcat/Km was found to be 755000 M⁻¹ s⁻¹. Moreover, in the data set “purified protein [2]”, the Km was found to be 11800 ± 1000 µM, the kcat stood at 140.8 ± 0.6 s⁻¹ and the kcat/Km was 12000 M⁻¹ s⁻¹.

B3: RmBgl3C (Rhodothermus marinus DSM 4252) (protein)
chain: CQKAEQQPPSTAAFPPLSSYDEQARALLEQMTLEEKIGQMIQAEQAFLQDPYDIQTYHLGSILSGGNSDPADGNSLEAWTEVYDSLQAIALRTRLGIPLLYGIDAVHGHSNVEGAVVFPHHIGLGATRDPDLVERVYRITAIEMRATGIHWNFAPCIAVARDERWGRTYESFSEDPELVATLGAAAVRGLQNGGLNNPLAVLATAKHFAGDGGTAFGTGGPQGALLDQGDVRLDEATFRRIHVRPYIDAIQAGVGSIMVSYSSWNGVKMTGHKYMLTDVLKGELGFEGIVISDYNAIDQVHPDYKTAIEIAINAGIDMAMVPTRYREFFQLLKELVEEGRVPMERIDDAVLRILRVKFAMGLMDGPEHVFADRSLWAKFGSAEHRAVAREAVRKSLVLLKNENQTLPLAKDLGRIHVAGLHADNLGYQAGGWTIDWQGGSGDITEGTTILEAIRKAVAPGTEVTYSEDGSGAAGADVAIAVIGERPYAEFLGDRSDLSLDPDDVAVVRRLKEAGVPVVVILISGRPMIINDVLEMADAFIAAWLPGSEGDGVADVLFGDYAPTGKLPFSWPRSMDQIPINVGDEDYDPLFPFGYGLTY
As to B3, in the data set “purified protein [1]”, the Km came out at 1600 ± 900 µM, the kcat turned out to be 67.2 s⁻¹ and the kcat/Km turned out to be 42900 M⁻¹ s⁻¹.

B4: RmNag3 (Rhodothermus marinus DSM 4252) (protein)
chain: HRSELDTAPPDRTRPGAWTETQLRTLTLAQQIGQLFAVRARGVFQSVDDPDYRELVRLVEQFQVGGVIFFQGDPYSQAMLANELQRRSRLPLLIAQDTEWGVAMRVRRTTSFPRAMAIGATGNPDYAYAVGYVTAREARALGVHQLYAPVADVNNNPMNPIINVRAFGEDPLQVATMVRAFVRGVQDAGAIATAKHFPGHGDTSIDSHSDLPVLRFDRKRLDTLELVPFRAAIKAGVQSIMTGHLALPRLDPTPNLPASLSRRITHELLREELGFDGLVVTDALEMQGVTKHFGVGEAAVRALEAGADMLLLSEDVEAARSAILQAVAQGRLSRARIEASVRRILLAKERLGLHRERLVDLNAIPYVVGIAPHQALSQTIARASLTLLRNEGNLLPLPDVPATPRQLQVIILSDSDDPATGRFFVQTLREIAPDDRIASRLLDVRSHPDDYRAALEAAARADVVLVPAYLFVRSGTGRIRLPERQRTFLDALIAQGRPVVLIAFGNPYLIMDLQRPPAVYLAAYGGSESTQRAAVQAIFGQAPFTGRLPITIPGHFQRGDGLQLEQVAPRLAYPEEVGMSTQRLYRVDSLLRAAIADSAFPGAAVAIGRGPAIVWLKGYGHFTYTSDQRVTPSSVFDLASLTKVVVTTTAAMQLYEAGKLDLDAPVVRYLPEFGQNGKERVTIRQLLSHTAGLAPFHPFHRMGITTAEAVRQAILSDSLIYEPGTQSRYSDLGMIVLGWVIERITGQPLDRYAAEHIFRPLGMRHTGFRPVGRPDTTVVPTEIDTIFRHRLIQGEVHDETAWILGGVAGHAGLFSTAEDLARFAYMLVNEGRIGGRPFLKPETIRLFTTPVDPERAGTRALGWDTRSREGYSSAGRLFGSRSFGHTGFTGTSIWIDPDQQLFVILLTNRVYPTRENRKHLAVRARLADLAYEALIGPPTLNLNALLP
notes: recombinant in E. coli BL21 C43 (pJOE3075), signal peptide removed, C-terminal His-tag, includes beta-lactamase domain; locus tag is that of the type strain DSM 4252T homolog, gene cloned from DSM 4253
Consider B4, for which, in “purified protein [3]”, the Km was found to be 100 ± 0 µM, the kcat was 102 ± 3 s⁻¹ and the kcat/Km turned out to be 1.31e+06 ± 50300 M⁻¹ s⁻¹.

B5: RmBgl3B (Rhodothermus marinus DSM 4252) (protein)
chain: QSSRVDSLLAAMTLAEKISLLHGAIDPTGEAGAGYVPGVPRLGIPAMRLTDGPAGIRTRHPATALPAPVALAASFDPELAYRYGHVMGIEGRARRHEVLLSPMVNIVRVPEAGRNFETFSEDPLLSAEMVAAEVRGIQDAGMMATVKHYVANNFENDRMRVNVVVDERTLREIYLPGFEAAIKAGAAAVMCAYNRVNGPYACDNEMLLTDILRDEWGFEGWVMTDWFAGHSLESLVRGLDQEMPGYTIPFSSPDMPLAPAVFADSLLAAVESGRIDEAYVDRAVRRILVQMEQFGLLDGESTPPEINIEAHAAVAREVAEAGAVLLRNENQTLPLSERDLQHLVVIGPTATRPLIGGGGSSRVQPFRTTSTLAALQELAGPQAQIRYVPGIDLDGMPVPSSALRTPDGQPGLLRQGADGTTQVDAQLDFTGERALPPGSQWTWTGTLTAPTAGVYELKLQTAGGVGTLSIDGQPVLRTGMFFSDASLIPTADSLENATYRIELQAGQQLSLTVQISGQVPSLPFLPAGQNPVQVRLAWVTPERRAAFLEEAAEAARAAHAAIVFVYEEGTEGRDRETLALRPDQDALVEAVAAANPRTTVVMNVGAPTLMPWAERVGAILLMWYPGQEGGWATADVLLGRANPAGRLPVTFPRRAEDAPTASPERYPGVDLTARYDEGIFVGYRWYDAQQIEPLFPFGHGLSYTTFAYENLRVEPDGDGFVVRFVVRNTGDRAGSDVPQVYLGPPENPPVPMAVRQLVGFRRVTLAPGEAQEVTVRIDGRALSYWSVEDHAWVKATGRRTLYVGASARDLRLQTEIDVQ
notes: recombinant in E. coli BL21 C43 (pET-21b(+)), signal peptide removed, C-terminal His-tag; locus tag is that of the type strain DSM 4252T homolog, gene cloned from DSM 4253
On to B5, for which, in “purified protein [1]”, the Km is 100 ± 0 µM, the kcat was 49.5 s⁻¹ and the kcat/Km is 511000 M⁻¹ s⁻¹. For the same molecule, in “purified protein [2]”, the Km turned out to be 1200 ± 100 µM, the kcat came out at 65.8 ± 0.4 s⁻¹ and the kcat/Km is 56200 ± 700 M⁻¹ s⁻¹.
